Tests used:
[1] = biological target: Nanoluc_DDB1 (N-terminal Nanoluc luciferase, G4S linker, DDB1 (FL)) (UniProt Q16531); assay: NanoBRET in HEK293T cells, 10 µM compound Example 3-18; class C = 2-3 fold increase
[2] = biological target: Nanoluc_DDB1 (N-terminal Nanoluc luciferase, G4S linker, DDB1 (FL)) (UniProt Q16531); assay: NanoBRET in HEK293T cells, 10 µM compound Example 3-15; class D = 1-2 fold increase
[3] = biological target: Nanoluc_DDB1 (N-terminal Nanoluc luciferase, G4S linker, DDB1 (FL)) (UniProt Q16531); assay: NanoBRET in HEK293T cells, 10-point titration of compound Example 3-59; class E = >10 µM
[4] = biological target: Nanoluc_DDB1 (N-terminal Nanoluc luciferase, G4S linker, DDB1 (FL)) (UniProt Q16531); assay: NanoBRET in HEK293T cells, 10 µM compound Example 3-50; class A = greater than 4-fold increase

Chain of Nanoluc_DDB1 (N-terminal Nanoluc luciferase, G4S linker, DDB1 (FL)) (Q16531 other isoform, or with tags, fused parts or gaps): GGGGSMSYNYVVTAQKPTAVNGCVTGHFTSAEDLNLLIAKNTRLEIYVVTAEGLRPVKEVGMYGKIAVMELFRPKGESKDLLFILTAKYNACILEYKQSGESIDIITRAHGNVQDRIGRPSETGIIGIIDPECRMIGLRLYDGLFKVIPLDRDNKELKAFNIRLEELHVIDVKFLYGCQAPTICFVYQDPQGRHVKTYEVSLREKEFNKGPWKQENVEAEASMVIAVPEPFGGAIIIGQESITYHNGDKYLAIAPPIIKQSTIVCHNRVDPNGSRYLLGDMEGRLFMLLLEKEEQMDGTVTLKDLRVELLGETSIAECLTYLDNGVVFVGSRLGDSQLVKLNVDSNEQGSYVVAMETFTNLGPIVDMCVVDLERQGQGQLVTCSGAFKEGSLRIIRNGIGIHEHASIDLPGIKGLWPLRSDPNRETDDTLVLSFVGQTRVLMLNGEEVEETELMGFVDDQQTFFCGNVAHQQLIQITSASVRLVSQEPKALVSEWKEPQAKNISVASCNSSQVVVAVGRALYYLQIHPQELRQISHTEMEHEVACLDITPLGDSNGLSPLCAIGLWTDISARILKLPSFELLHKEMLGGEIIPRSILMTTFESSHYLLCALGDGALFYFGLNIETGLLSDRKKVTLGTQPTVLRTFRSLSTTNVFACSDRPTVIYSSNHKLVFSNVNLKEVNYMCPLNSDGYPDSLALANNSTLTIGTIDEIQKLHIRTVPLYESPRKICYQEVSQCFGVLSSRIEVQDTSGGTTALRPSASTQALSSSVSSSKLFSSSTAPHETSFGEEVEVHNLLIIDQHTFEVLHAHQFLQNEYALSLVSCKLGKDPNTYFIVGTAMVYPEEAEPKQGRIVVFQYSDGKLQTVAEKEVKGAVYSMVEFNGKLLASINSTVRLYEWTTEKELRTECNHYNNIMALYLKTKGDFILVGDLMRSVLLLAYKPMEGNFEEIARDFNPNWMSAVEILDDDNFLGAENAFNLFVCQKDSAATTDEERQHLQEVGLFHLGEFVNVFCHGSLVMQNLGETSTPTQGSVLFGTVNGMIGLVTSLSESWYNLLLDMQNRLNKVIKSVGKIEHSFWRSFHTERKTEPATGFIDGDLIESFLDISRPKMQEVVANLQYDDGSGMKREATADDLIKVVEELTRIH

NanoBRET fold increase [1]: 2 to 3 fold
NanoBRET fold increase [2]: 1 to 2 fold
EC50 [3]: > 10 µM
NanoBRET fold increase [4]: > 4 fold
Substance: HaloTag_CDK12 (N-terminal HaloTag, G4S linker, CDK12 (713-1052)) (from UniProt Q9NYV4 713-1052) (enzyme)
